Data: patent publication US20230159662A1 (Kyowa Kirin, published 2023)

B1: human IgG1 anti-human CCR4 antibody (KM2160), S239E/K326I (antibody)
heavy: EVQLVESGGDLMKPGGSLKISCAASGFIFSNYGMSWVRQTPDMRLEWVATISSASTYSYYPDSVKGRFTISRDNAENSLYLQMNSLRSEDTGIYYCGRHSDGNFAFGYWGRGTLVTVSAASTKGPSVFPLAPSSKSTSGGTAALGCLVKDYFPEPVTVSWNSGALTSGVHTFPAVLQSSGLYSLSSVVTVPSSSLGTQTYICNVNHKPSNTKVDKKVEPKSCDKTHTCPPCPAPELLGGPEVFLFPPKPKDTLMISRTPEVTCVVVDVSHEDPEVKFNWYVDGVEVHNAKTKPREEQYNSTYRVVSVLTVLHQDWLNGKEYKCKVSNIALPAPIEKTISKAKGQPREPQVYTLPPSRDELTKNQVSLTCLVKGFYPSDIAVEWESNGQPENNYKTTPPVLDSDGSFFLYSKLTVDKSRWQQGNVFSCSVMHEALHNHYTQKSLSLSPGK
light: DVLMTQTPLSLPVSLGDQASISCRSSRNIVHINGDTYLEWYLQRPGQSPKLLIYKVSNRFSGVPDRFSGSGSGTDFTLKISRVEAEDLGVYYCFQGSLLPWTFGGGTRLEIRRTVAAPSVFIFPPSDEQLKSGTASVVCLLNNFYPREAKVQWKVDNALQSGNSQESVTEQDSKDSTYSLSSTLTLSKADYEKHKVYACEVTHQGLSSPVTKSFNRGEC
B2: human IgG1 anti-human CCR4 antibody (KM2160), F243L/R292P/Y300L (antibody)
heavy: EVQLVESGGDLMKPGGSLKISCAASGFIFSNYGMSWVRQTPDMRLEWVATISSASTYSYYPDSVKGRFTISRDNAENSLYLQMNSLRSEDTGIYYCGRHSDGNFAFGYWGRGTLVTVSAASTKGPSVFPLAPSSKSTSGGTAALGCLVKDYFPEPVTVSWNSGALTSGVHTFPAVLQSSGLYSLSSVVTVPSSSLGTQTYICNVNHKPSNTKVDKKVEPKSCDKTHTCPPCPAPELLGGPSVFLLPPKPKDTLMISRTPEVTCVVVDVSHEDPEVKFNWYVDGVEVHNAKTKPPEEQYNSTLRVVSVLTVLHQDWLNGKEYKCKVSNKALPAPIEKTISKAKGQPREPQVYTLPPSRDELTKNQVSLTCLVKGFYPSDIAVEWESNGQPENNYKTTPPVLDSDGSFFLYSKLTVDKSRWQQGNVFSCSVMHEALHNHYTQKSLSLSPGK
light: DVLMTQTPLSLPVSLGDQASISCRSSRNIVHINGDTYLEWYLQRPGQSPKLLIYKVSNRFSGVPDRFSGSGSGTDFTLKISRVEAEDLGVYYCFQGSLLPWTFGGGTRLEIRRTVAAPSVFIFPPSDEQLKSGTASVVCLLNNFYPREAKVQWKVDNALQSGNSQESVTEQDSKDSTYSLSSTLTLSKADYEKHKVYACEVTHQGLSSPVTKSFNRGEC
B3: human IgG1 anti-human CCR4 antibody (KM2160), F243L/R292P/Y300L/V305I/P396L (antibody)
heavy: EVQLVESGGDLMKPGGSLKISCAASGFIFSNYGMSWVRQTPDMRLEWVATISSASTYSYYPDSVKGRFTISRDNAENSLYLQMNSLRSEDTGIYYCGRHSDGNFAFGYWGRGTLVTVSAASTKGPSVFPLAPSSKSTSGGTAALGCLVKDYFPEPVTVSWNSGALTSGVHTFPAVLQSSGLYSLSSVVTVPSSSLGTQTYICNVNHKPSNTKVDKKVEPKSCDKTHTCPPCPAPELLGGPSVFLLPPKPKDTLMISRTPEVTCVVVDVSHEDPEVKFNWYVDGVEVHNAKTKPPEEQYNSTLRVVSILTVLHQDWLNGKEYKCKVSNKALPAPIEKTISKAKGQPREPQVYTLPPSRDELTKNQVSLTCLVKGFYPSDIAVEWESNGQPENNYKTTPLVLDSDGSFFLYSKLTVDKSRWQQGNVFSCSVMHEALHNHYTQKSLSLSPGK
light: DVLMTQTPLSLPVSLGDQASISCRSSRNIVHINGDTYLEWYLQRPGQSPKLLIYKVSNRFSGVPDRFSGSGSGTDFTLKISRVEAEDLGVYYCFQGSLLPWTFGGGTRLEIRRTVAAPSVFIFPPSDEQLKSGTASVVCLLNNFYPREAKVQWKVDNALQSGNSQESVTEQDSKDSTYSLSSTLTLSKADYEKHKVYACEVTHQGLSSPVTKSFNRGEC
B4: human IgG1 anti-human CCR4 antibody (KM2160), P230A/E233D/I332E (antibody)
heavy: EVQLVESGGDLMKPGGSLKISCAASGFIFSNYGMSWVRQTPDMRLEWVATISSASTYSYYPDSVKGRFTISRDNAENSLYLQMNSLRSEDTGIYYCGRHSDGNFAFGYWGRGTLVTVSAASTKGPSVFPLAPSSKSTSGGTAALGCLVKDYFPEPVTVSWNSGALTSGVHTFPAVLQSSGLYSLSSVVTVPSSSLGTQTYICNVNHKPSNTKVDKKVEPKSCDKTHTCPPCAAPALLGGPSVFLFPPKPKDTLMISRTPEVTCVVVDVSHEDPEVKFNWYVDGVEVHNAKTKPREEQYNSTYRVVSVLTVLHQDWLNGKEYKCKVSNKALPAPEEKTISKAKGQPREPQVYTLPPSRDELTKNQVSLTCLVKGFYPSDIAVEWESNGQPENNYKTTPPVLDSDGSFFLYSKLTVDKSRWQQGNVFSCSVMHEALHNHYTQKSLSLSPGK
light: DVLMTQTPLSLPVSLGDQASISCRSSRNIVHINGDTYLEWYLQRPGQSPKLLIYKVSNRFSGVPDRFSGSGSGTDFTLKISRVEAEDLGVYYCFQGSLLPWTFGGGTRLEIRRTVAAPSVFIFPPSDEQLKSGTASVVCLLNNFYPREAKVQWKVDNALQSGNSQESVTEQDSKDSTYSLSSTLTLSKADYEKHKVYACEVTHQGLSSPVTKSFNRGEC

What follows are binders tested against human CD16a (Val type) stably expressed on NK-92 cells (NK-92/CD16 transfectant) (human, UniProt P08637 17-254) (assay: cell-based or functional assay).
human CD16a (Val type) stably expressed on NK-92 cells (NK-92/CD16 transfectant), sequence (P08637 17-254 F176V): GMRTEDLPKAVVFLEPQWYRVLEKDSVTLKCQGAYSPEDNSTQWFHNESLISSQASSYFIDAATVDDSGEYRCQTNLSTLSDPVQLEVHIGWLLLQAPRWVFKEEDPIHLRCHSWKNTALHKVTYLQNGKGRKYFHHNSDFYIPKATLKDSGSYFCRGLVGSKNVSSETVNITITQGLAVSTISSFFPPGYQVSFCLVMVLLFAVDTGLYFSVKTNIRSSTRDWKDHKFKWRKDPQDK

Question: How did the “relative ADCC activity (AAA = 100)” value turn out when B1 was run?
Answer: 135 relative, AAA at 0.1 µg/mL = 100

Question: How did the “relative ADCC activity (AAA = 100)” value turn out when B2 was run?
Answer: 3 relative, AAA at 0.1 µg/mL = 100

Question: With B3 as the binder, how does the “relative ADCC activity (AAA = 100)” value read?
Answer: -9 relative, AAA at 0.1 µg/mL = 100

Question: How did the “relative ADCC activity (AAA = 100)” value turn out when B4 was run?
Answer: 53 relative, AAA at 0.1 µg/mL = 100
